How the values were obtained:
[1] = target: Ace-AMP1 (Allium cepa - Antimicrobial Protein 1), mature protein purified from Allium cepa seeds (Allium cepa)
[2] = target: reduced and S-carboxyamidomethylated Ace-AMP1 (Allium cepa)

Substance | Relative antifungal activity (% of control activity) after protease digestion (% of control activity) [1] | other results
Chymotrypsin (enzyme) | 80 | –
Pronase E (enzyme) | 5 | –
Proteinase K (enzyme) | 60 | –
Trypsin (enzyme) | 90 | –
endoproteinase Arg-C (sequencing grade, Boehringer) (enzyme) | – | peptides separated by RP-HPLC after digestion (separable peptides) [2]: > 10
endoproteinase Asp-N (sequencing grade, Boehringer) (enzyme) | – | protein fragments separated by RP-HPLC after digestion (protein fragments) [2]: 3

From patent publication US5773694
